The test system of data set [1] is MS2 coat protein. Kind of data set: apparent KD of MS2 coat protein, switch OFF state (with FMN for OFF switches, without FMN for ON switches); designed switch direction (-1 OFF switch, 1 ON switch): -1; higher = weaker reporter binding. As to conditions: FMN input: 0 or 200 uM; Eterna round: R93 (includes R88 designs). Summed up: (§1)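 Apparent KD was obtained for each design as the median of normalised binding-curve fits over its clusters. RNA switches transcribed on-chip from Illumina sequencing clusters were titrated with SNAP-549-labelled MS2 coat protein (twofold steps, 0.7 or 1.5 nM to 3 µM) in 100 mM Tris-HCl pH 7.5, 80 mM KCl, 4 mM MgCl2, without or with constant ligand.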

Data set [2] concerns MS2 coat protein. As to the kind of experiment: apparent KD of MS2 coat protein, switch ON state; designed switch direction (-1 OFF switch, 1 ON switch): -1; higher = weaker reporter binding. As to conditions: FMN input: 0 or 200 uM; Eterna round: R93 (includes R88 designs). In short, it runs like this:
as §1

For “AAAGAUGGAGGAUAUACAUGAGGAUCACCCAUGUGGAAAAUAAAUUGGGAAAAAGAAAGUAGAAGGCCAAAAAA [Ex 3 May 41]”, the entries for the “apparent KD of MS2 coat protein” value in data set [1] and in data set [2] were 94.7 nM and 45.5 nM, respectively.
Turning to “AAAGGACAAGGAUAUACAUGAGGAUCACCCAUGUGUAAAACAUAAUAAAAUAACUUAUGUAGAAGGUGUCCAAA [Mat - Exclusion 3 - Eli mod - D100]”, the “apparent KD of MS2 coat protein” value in data set [1] was 173 nM; in data set [2], 30.5 nM.
Consider “AAAGGACAUGAGGAUCACCCAUGUGAGGAUAUGACGUAAAGAAAGAAAGAAGAAAUCGUCAGAAGGCACACCUA [Mat - Exclusion 1 - Eli mod - D69]”, for which the “apparent KD of MS2 coat protein” value in data set [1] worked out at 36.5 nM; in data set [2], 35.4 nM.
In the case of “AAAGGACGAGGAUAUACAUGAGGAUCACCCAUGUAAAAAACAUAAUAAAAGAACUUAUGUAGAAGGCGUCCAAA [Meechl Ex3 2 R1 - Copy of Meechl Ex3 2 from Round 1]”, the “apparent KD of MS2 coat protein” value turned out to be 318 nM in data set [1] and 53.8 nM in data set [2].
As to “AAAGGACGAGGAUAUACAUGAGGAUCACCCAUGUAAAAAACAUAAUAAAAGAACUUAUGUAGAAGGCGUCCAAA [Meechl Ex3 2]”, the “apparent KD of MS2 coat protein” value stood at 318 nM in data set [1] and 53.8 nM in data set [2].
For the sequence “AAAGGACGAGGAUAUACAUGAGGAUCACCCAUGUAAAAAACAUAGUAAAAGAACUUGUGUAGAAGGCGUCCAAA [Meechl Ex3 2 R2 v7]”, the “apparent KD of MS2 coat protein” value came out at 181 nM in data set [1] and 159 nM in data set [2].
As to “AAAGGACGAGGAUAUACAUGAGGAUCACCCAUGUGUAAAACGUAAUAAAAGAACUUAUGUAGAAGGCGUCCAAA [Mat - Exclusion 3 - Eli mod - D96]”, the “apparent KD of MS2 coat protein” value amounted to 214 nM in data set [1] and 64.7 nM in data set [2].
“AAAGUGUGAGGAUAUGUGAAAGGACACGAAAGUGACAAAGAACAGAAGGUACAUGAGGAUCACCCAUGUAAAAA [milkweed 20]”: the “apparent KD of MS2 coat protein” value is 23.5 nM in data set [1] and 27.4 nM in data set [2].
“AAAUAGUUAGGAUAUACAUGAGGAUCACCCAUGUGCACGUAUGGAGAAUAUGGUGGUGGUAGAAGGGACUAAAA [EX2 Malc#20]”: the “apparent KD of MS2 coat protein” value in data set [1] is 94.7 nM; in data set [2], 55.5 nM.
Turning to “AAAUAGUUAGGAUAUACAUGAGGAUCACCCAUGUGGACUUAUGGCGAAUAAUUUAGUGGUAGAAGGGACUAAAA [EX2 Malc#28]”, the “apparent KD of MS2 coat protein” value in data set [1] was determined as 53.8 nM; in data set [2] it was 62.9 nM.
In the case of “AAAUGACAUGAGGAUCACCCAUGUCAGGAUAUGACUUGAAAAUAAAAUAAAAAACAUGUCAGAAGGGACAUGGG [Design 50: Sub-opt F]”, the “apparent KD of MS2 coat protein” value amounted to 15.5 nM in data set [1] and 20.3 nM in data set [2].
Consider “AAAUGACUAGGAUAUACAUGAGGAUCACCCAUGUGUAUAAAUAAAUACACAAAAGAAAGUAGAAGGAGUCAAAG [Mat - Exclusion 3 - Mayanna mod - D123]”, for which the “apparent KD of MS2 coat protein” value amounted to 60.5 nM in data set [1] and 20.6 nM in data set [2].
In the case of “AAAUUGUCAGGAUAUCGUAGAACUCUAAAAUAGAGGAGCUACGAGAAGGGACAUGAGGAUCACCCAUGUAAAAC [May 88]”, the “apparent KD of MS2 coat protein” value in data set [1] turned out to be 68.4 nM; in data set [2], 56.2 nM.
Take “AACAAGUAAGGAUAUGCUGCUCGUCACAAAAGUGAUGAGUAGCAGAAGGUACAUGAGGAUCACCCAUGUAAAGA [JL eternac mod 16]”: the “apparent KD of MS2 coat protein” value in data set [1] came out at 21.1 nM; in data set [2] it was 28 nM.
For the sequence “AACAAGUCAGGAUAUACAAAAAGUAAAUAAGUAAAACAAAAGUAGAAGGGACAUGAGGAUCACCCAUGUAAAUA [JR_Exc004_Sub018]”, the “apparent KD of MS2 coat protein” value is 26.7 nM in data set [1] and 46.8 nM in data set [2].
On to “AACAAGUGAGGAUAUCUGGAUAGGAAAAAGAAAACCUAUCCAGAGAAGGCACAUGAGGAUCACCCAUGUAAAAA [JL cataway mod 6]”, for which the “apparent KD of MS2 coat protein” value in data set [1] was determined as 34.6 nM; in data set [2], 32.7 nM.
For “AACAGGUCAGGAUAUGUGCAACAGAAAAGAGCAGAAUAAGCACAGAAGGGACAUGAGGAUCACCCAUGUUAACA [May 27]”, in that order: 32.2 nM and 24.6 nM.
Consider “AACAGUACAGGAUAUACAUGAGGAUCACCCAUGUAGAGAAAAUAAAACAAAAAUAAAAGUAGAAGGGUACUGGA [Ruby 47]”, for which the “apparent KD of MS2 coat protein” value amounted to 26.4 nM in data set [1] and 26.6 nM in data set [2].
Regarding “AACAGUACAGGAUAUACAUGAGGAUCACCCAUGUAGAGAGAAUAAAACAAAAAUAAAUGUAGAAGGGUACUGGA [Moding Maslow revisited (73) 23]”, the “apparent KD of MS2 coat protein” value in data set [1] is 26.1 nM; in data set [2], 25.6 nM.
For “AACAGUACAGGAUAUACAUGAGGAUCACCCAUGUCACACAAAUAAAACAAAAAUAAAAGUAGAAGGGUACUGGA [Ruby 40]”, in that order: 25.9 nM and 24.9 nM.
For “AACAGUACAGGAUAUACAUGAGGAUCACCCAUGUGAAAAUUAAGUGGAGAACCACAAAGUAGAAGGGUACUGAA [Mat - Exclusion 3 - Eli mod - D57]”, in that order: 179 nM and 27.6 nM.
Regarding “AACAGUACAGGAUAUACAUGAGGAUCACCCAUGUGAGAAUUAAAAGGCGUACCUAAAAGUAGAAGGGUACUGGA [JL Maslow Revisted mod 18]”, the “apparent KD of MS2 coat protein” value in data set [1] was determined as 73.2 nM; in data set [2], 28.3 nM.
Take “AACAGUACAGGAUAUACAUGAGGAUCACCCAUGUGAGAAUUAAGUGGCGAACCACAAAGUAGAAGGGUACUGAA [Mat - Exclusion 3 - JL mod - D7]”: the entries for the “apparent KD of MS2 coat protein” value in data set [1] and in data set [2] were 181 nM and 45.3 nM, respectively.
As to “AACAGUACAGGAUAUACAUGAGGAUCACCCAUGUGGAAAUUAAGUGGCGUACCACAAAGUAGAAGGGUACUGGA [Moding Maslow revisited (73)]”, the “apparent KD of MS2 coat protein” value was found to be 100 nM in data set [1] and 29.5 nM in data set [2].
Turning to “AACAUGUAAGGAUAUCCAAGAAAAGAAAAGAAAGAAAAGAAGGAGAAGGUACAUGAGGAUCACCCAUGUAAGAA [EteRNA is fun!]”, the “apparent KD of MS2 coat protein” value is 18.9 nM in data set [1] and 21.6 nM in data set [2].
Take “AACAUGUCAGGAUAUGCAACAGGAGACUGACACGCGAGUGAGCAGAAGGGACAUGAGGAUCACCCAUGUUCAAA [Meechl Ex4 3]”: the “apparent KD of MS2 coat protein” value in data set [1] worked out at 17.1 nM; in data set [2] it was 21.1 nM.
As for “AACAUGUCAGGAUAUGUGUAAAGAAUAAAAGAAAUAACAACACAGAAGGGACAUGAGGAUCACCCAUGUCAACA [May 32]”, the “apparent KD of MS2 coat protein” value in data set [1] worked out at 29.3 nM; in data set [2], 26.1 nM.
“AACAUGUGAGGAUAUUAAAGAAAAGAAAAGAAAGAAAAGAAUAAGAAGGCACAUGAGGAUCACCCAUGUAAGAA [EteRNA is fun!]”: the entries for the “apparent KD of MS2 coat protein” value in data set [1] and in data set [2] were 26.9 nM and 32.5 nM, respectively.
Take “AACUAGUGAGGAUAUACAAGAAUAUAAACAAAAAUGAAGGGACAUGAGGAUCACCCAUGUAGAAGGCACUAACA [Diamond 71]”: the entries for the “apparent KD of MS2 coat protein” value in data set [1] and in data set [2] were 106 nM and 34 nM, respectively.
For “AACUGACAUGAGGAUCACCCAUGUCAGGAUAUGACUUCGAAAAAAAAAAAAAACGAUGUCAGAAGGGACAUGGG [Design 69: Sub-opt OB]”, in that order: 22.3 nM and 17.6 nM.
On to “AACUGACAUGAGGAUCACCCAUGUCAGGAUAUGACUUGAAAAAAAAAAAAAAAACAUGUCAGAAGGGACAUGGG [Design 55 :P Sub-opt HB]”, for which the “apparent KD of MS2 coat protein” value in data set [1] turned out to be 17.9 nM; in data set [2], 26.8 nM.
In the case of “AACUGACAUGAGGAUCACCCAUGUCAGGAUAUGCAUCUUAGGAAAAAAAAACUAAGAUGCAGAAGGGACAAGGG [Amethyst 48]”, the “apparent KD of MS2 coat protein” value in data set [1] came to 33.1 nM; in data set [2] it was 22.7 nM.
In the case of “AACUGACAUGAGGAUCACCCAUGUCAGGAUAUGCUUCAUAAAAAAAAAAAAAAAUGAUGCAGAAGGGAUAUGGG [Design 33 :P Sub-opt 9]”, the “apparent KD of MS2 coat protein” value is 34.3 nM in data set [1] and 18 nM in data set [2].
For “AAGAAACAUGAGGAUCACCCAUGUCAGGAUAUCCAAAAGAAAAGAAAAGAAAGAAGAAGGAGAAGGGACAAAGG [Neferkamin Anu]”, the results for the “apparent KD of MS2 coat protein” value in data set [1] and in data set [2] were 40.6 nM and 31 nM, respectively.
For “AAGAAACAUGAGGAUCACCCAUGUGAGGAUAUAGAAGAAAGAAAGAAAGAAAGAAGAACUAGAAGGCACAAAGG [Aemilius Rectus]”, in that order: 35.3 nM and 33.1 nM.
On to “AAGAAACAUGAGGAUCACCCAUGUGAGGAUAUCCAAAAGAAAAGAAAAGAAAGAAGAAGGAGAAGGCACAAAGG [Nikare]”, for which the “apparent KD of MS2 coat protein” value is 159 nM in data set [1] and 88.5 nM in data set [2].
With “AAGAAACAUGAGGAUCACCCAUGUGAGGAUAUGAAAAAGAAAAGAAAAGAAAGAAGAAUCAGAAGGCACAAAGG [Nebkaure Khety II]”, the “apparent KD of MS2 coat protein” value in data set [1] was 1850 nM; in data set [2], 22.1 nM.
With “AAGAAACAUGAGGAUCACCCAUGUGAGGAUAUGUAAAAGAAAAGAAAAGAAAGAAGAAACAGAAGGCACAAAGG [Neferkare VII]”, the “apparent KD of MS2 coat protein” value in data set [1] amounted to 48 nM; in data set [2], 43.1 nM.
For “AAGAAACGAGGAUAUACAAGAAAGAAAGAAAAGAAAAGAAAACAUGAGGAUCACCCAUGUAGAAGGCGUUAGAA [EteRNA is fun!]”, in that order: 13.8 nM and 22 nM.
For the sequence “AAGAACACAGGAUAUACAUGAAAGAAAGAAAAGAAAAGAAAACAUGAGGAUCACCCAUGUAGAAGGGUGUAGAA [EteRNA is fun!]”, the “apparent KD of MS2 coat protein” value came out at 532 nM in data set [1] and 454 nM in data set [2].

The values above are taken from the supplement of paper PMC9170038.
